{
  "source": "patent US20110239327A1",
  "about": "“Nematicidal Effects of Cysteine Proteinases and Methods of Use Thereof to Treat Nematode Infestation” (priority 2007, published 2011)",
  "molecules": {"B1": {"name": "actinidin (protein, UniProt P00785 127-380, looked up)", "Actinidain": "LPSYVDWRSAGAVVDIKSQGECGGCWAFSAIATVEGINKIVTGVLISLSEQELIDCGRTQNTRGCNVGYITDGFQFIINNGGINTEENYPYTAQDGECNVDLQNEKYVTIDTYENVPYNNEWALQTAVTYQPVSVALDAAGDAFKHYSSGIFIGPCGTAIDHAVTIVGYGTEGGIDYWIVKNSWDTTWGEEGYMRILRNVGGAGTCGIATMPSYPVKYNNQNHPKSYSSLINPPAFSMSNDGPVGVDDGQRYSA", "notes": "cysteine proteinase from kiwi fruit (Actinidia chinensis), Merops C01.007"}},
  "key": {"[1]": {"system": "Steinernema feltiae", "experiment": "In vitro effect on the beneficial nematode Steinernema feltiae", "type": "cell-based", "method": "(§1) Eggs of M. incognita race 1 from North Carolina State University, USA were collected from tomato-infected roots grown in a glasshouse at 23° C. in a 16:8 h light-dark regime. Eggs were extracted using 1% hypochlorite (NaClO) solution (Hussey and Barker, 1973) or by picking egg masses from tomato-infected roots. Juveniles (J2) were hatched from the eggs and egg masses in water. Heterodera glycines eggs were obtained from soil samples stored in Rothamsted-Research. Second stage juveniles (J2) were hatched from the eggs in water after 10 days. Pratylenchus penetrans were a gift from Dr. Deeren Anne-Marie from the Institute for Agricultural and Fisheries Research, Merelbeke, Belgium. The beneficial nematodes Steinernema feltiae and Heterorhabditis megidis were a gift from Dr. Paul Williams from Becker Underwood.\n(§2) Control wells were set up which contained J2s and distilled water with 16 mM L-cysteine. Each enzyme concentration and the controls were set up in duplicate (i.e. n=2). The actual number of active J2s per well was counted with the aid of an Olympus inverted microscope, prior to the addition of the enzymes, and then the J2s were incubated in the dark at room temperature for 2 hs, 16 hs, 24 hs or 40 hr. The number of live and dead J2s per well was counted after each enzyme incubation. The same procedure was followed when setting up further experiments to compare the effects of these enzymes with Heterodera glycines J2, Pratylenchus penetrans, Steinernema feltiae and Heterorhabditis megidis.\n(§3) The beneficial nematodes Hetorhabditis megidis and Steinernema feltiae were incubated with dilutions of actinidin, bromelain and pappain from papaya latex (see concentrations used in table 3). These nematodes reacted differentially to these cysteine proteinases (Tables 4 and 5). […] S. feltiae were dead at all concentrations of actinidin tested. […] After 16 hs of observation the enzyme solutions were diluted with water (to half of the initial concentrations) however, no change in nematode movement was observed after 24 hs."}, "[2]": {"system": "M. incognita J2", "experiment": "In planta bioassay, two soil applications: nematode infection of tomato roots", "type": "in vivo, M. incognita on tomato plants", "details": "two soil applications of enzyme (250 μM papain, 2.2 μM bromelain, 3.3 mM actinidin as printed), soil 16% organic matter, 11 days", "method": "Oxamyl is supplied as 10% liquid Vydate. 125 μl of a solution 1000 fold dilution of 10% formulation (kindly supplied by DK from NIU) was applied to 5 g of the soil mixture with 16% organic matter, to give a partial nematicidal effect. Soil mixtures were wetted with PBS pH 7.2, 16 hrs prior nematode application of 1000 or 2000 M. incognita J2. Infected soil mixtures were treated with water (control) or 250 μM of active papain in 16 mM of L-cysteine or a combination of Vydate and 250 μM of active papain in 16 mM of L-cysteine. After 48 hs tomato seedlings one month old were added to the treated soils. After 11 days the roots were washed free of soil and chopped to approximately 2 mm pieces. The root pieces of each tomato plant was placed in muslin bags and stained with acid-fuchsin. The stained roots were examined under microscope and all the nematodes present in the roots were counted. […] After 48 hours tomato seedlings one month old were added to the treated soils and after 11 days post infection nematode development inside root tissues was assessed as described above.\nThe avermectins are macrocyclic lactones produced by the actinomycete Streptomyces avermitilis. […] After 48 hs tomato seedlings one month old were added to the treated soils and after 11 days post infection nematode development inside root tissues was assessed as described above. […]"}, "[3]": {"system": "Heterorhabditis megidis", "experiment": "In vitro effect on the beneficial nematode Heterorhabditis megidis", "type": "cell-based", "method": "as §1, §2, §3"}, "[4]": {"details": "enzyme concentration A (Table 3): actinidin 3.3 mM, bromelain 2.2 mM, papain 250 uM"}, "[5]": {"details": "enzyme concentration B: actinidin 1.7 mM, bromelain 1.1 mM, papain 125 uM"}, "[6]": {"details": "enzyme concentration C: actinidin 840 uM, bromelain 560 uM, papain 62.5 uM"}},
  "data": [
    {"molecule": "B1", "values": [
      {"measurement": "state of S. feltiae", "setting": "[1]; all concentrations of actinidin tested", "result": "dead"},
      {"measurement": "nematode motility or behaviour", "setting": "[1]; [4]", "result": "All dead"},
      {"measurement": "nematode motility or behaviour", "setting": "[1]; [5]", "result": "All dead"},
      {"measurement": "nematode motility or behaviour", "setting": "[1]; [6]", "result": "All dead"},
      {"measurement": "nematode motility or behaviour", "setting": "[1]; enzyme concentration D: actinidin 420 uM, bromelain 280 uM, papain 31 uM", "result": "All dead"},
      {"measurement": "nematode motility or behaviour", "setting": "[1]; enzyme concentration E: actinidin 210 uM, bromelain 140 uM, papain 15 uM", "result": "All dead"},
      {"measurement": "nematode motility or behaviour", "setting": "[1]; enzyme concentration F: actinidin 105 uM, bromelain 70 uM, papain 7.5 uM", "result": "All dead"},
      {"measurement": "reduction of nematode infection of plants", "setting": "[2]", "result": 99, "unit": "%"},
      {"measurement": "nematode motility or behaviour", "setting": "[3]; [4]", "result": "All paralysed"},
      {"measurement": "nematode motility or behaviour", "setting": "[3]; [5]", "result": "All paralysed"},
      {"measurement": "nematode motility or behaviour", "setting": "[3]; [6]", "result": "All paralysed"},
      {"measurement": "effect on H. megidis", "setting": "[3]; higher concentrations", "result": "paralysed"},
      {"measurement": "effect on H. megidis", "setting": "[3]; lower concentrations", "result": "only affected slightly"}
    ]}
  ]
}
